Source: US20250388697A1 (UNIVERSITY OF MASSACHUSETTS, published 2025)

Biological target: T1, endogenous murine SOD1 WT (in non-transgenic mouse spinal cord lysate) (mouse, UniProt P08228 2-154)
T1 construct: Tested only as a component of clarified spinal cord lysate; also called marine SOD1 WT (as printed once)
Experiment: competitive ELISA: Nb54 (0.2 µg/ml) on immobilized SOD1 G93A with Non-Tg mouse spinal cord lysate as competitor
Method: A competitive ELISA was used to assess a potential interaction between nanobody and SOD1 derived from an ALS mouse model as follows. […] All research involving animals for the following post-mortem tissue processing was reviewed and approved by the Institutional Animal Care and Use Committee (IACUC) at the University of Massachusetts Chan Medical School.
Serial dilutions were prepared in 25 μl of assay buffer (0.2% (w/v) BSA in PBS). […] A statistical analysis was performed as described below and in the figure legend.

T1 sequence (P08228 2-154 limits assumed): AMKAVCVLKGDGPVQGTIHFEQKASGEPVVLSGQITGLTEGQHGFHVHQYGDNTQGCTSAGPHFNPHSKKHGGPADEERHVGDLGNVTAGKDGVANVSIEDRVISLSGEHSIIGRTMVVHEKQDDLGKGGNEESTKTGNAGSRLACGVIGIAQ

binding result: no binding
B1: Nb54 with a non-cleavable his-tag (used in the competitive ELISA) (VHH)
VHH: QVQLVESGGGWVQAGGSLRLSCVVSGTNFNDRSMGWYRQAPGKERELVATLSYGGRRNYVDAVKARFTMSRDNRKNTTYLLMNDLEPDDTAVYYCAAGHVLESVVPATTWIEYWGQGTQVTVSS
notes: not shown: non-cleavable his-tag
